# B1: GLP-1 receptor (plasma membrane preparation of rat insulinoma cell line RINm5f) (receptor)
# chain: GPRPQGATVSLSETVQKWREYRHQCQRFLTEAPLLATGLFCNRTFDDYACWPDGPPGSFVNVSCPWYLPWASSVLQGHVYRFCTAEGIWLHKDNSSLPWRDLSECEESKQGERNSPEEQLLSLYIIYTVGYALSFSALVIASAILVSFRHLHCTRNYIHLNLFASFILRALSVFIKDAALKWMYSTAAQQHQWDGLLSYQDSLGCRLVFLLMQYCVAANYYWLLVEGVYLYTLLAFSVFSEQRIFKLYLSIGWGVPLLFVIPWGIVKYLYEDEGCWTRNSNMNYWLIIRLPILFAIGVNFLVFIRVICIVIAKLKANLMCKTDIKCRLAKSTLTLIPLLGTHEVIFAFVMDEHARGTLRFVKLFTELSFTSFQGFMVAVLYCFVNNEVQMEFRKSWERWRLERLNIQRDSSMKPLKCPTSSVSSGATVGSSVYAATCQNSCS
# notes: whole, on cells; The receptor stood in a plasma membrane preparation of the cells, not on intact cells; also called GLP-1 receptors; RINm5f membranes
# Target: T1, Exendin-4 (Heloderma suspectum (Gila monster); …)
# T1 construct: also called synthetic exendin-4
# Assay: displacement of radiolabeled GLP-1 from RINm5f plasma membranes
binder,measurement,value
B1,binding result,binds

# Source: US20130165379A1 (AMYLIN PHARMACEUTICALS, published 2013)
